{"source": "patent US20130316374A1", "about": "“BREAST CANCER DIAGNOSTICS” (IMBA - INSTITUT FUR MOLEKULARE BIOTECHNOLOGIE GMBH, priority 2010, published 2013)", "key": {"mammary epithelial cells": {"test_system": "mammary epithelial cells", "test": "Epithelial proliferation in mammary glands, in situ Ki67 immunostaining", "type": "in vivo, mouse", "experimental": "a, Epithelial proliferation in mammary glands of control littermates and RANK^Δmam females 3 days after sham treatment and MPA implantation. Proliferation was determined by in situ Ki67 immunostaining. b,c, Marked increase of the stem cell-enriched CD24^+CD49^high population (MaSC) in MPA-treated mammary glands in control but not in RANK^Δmam mammary glands. b, Representative FACS profiles showing CD24 and CD49 expression of lineage negative (CD31^− (endothelial cells) CD45^− (hematopoietic cells) […] (erythroid cells)) of mammary MaSCs from MPA- or sham-treated 8-week old virgin females. c, Quantification of MaSC-enriched CD24^+CD49^high population from mammary glands of MPA- or sham-treated virgin RANK^Δmam and littermate control females. For all MaSCs experiments mice were treated with MPA for 3 days. n=4 per group+/−sem. *P<0.05; ***P<0.001 (Student's t-test).\nAt least 1000 mammary gland epithelial cells were counted per mouse. n=3 mice per genotype. **P<0.005; ***P<0.001 (Student's t-test). b, Quantification of in situ Ki67 immunostained cells per acinus from mammary glands of control littermate and RANK^Δmam females on day 3 after MPA s.c. implantation. […] At least 1000 cells were counted per mammary gland. n=3 per genotype. In b, and c, data are shown as percentage of acini/ducts with low (<20% of epithelial cells are Ki67^+), medium (20-80% of epithelial cells are Ki67^+) and high (>80% of epithelial cells are Ki67^+) numbers of proliferating cells+/−sem. ***P<0.001; *P<0.03 (Student's t-test). d, Epithelial proliferation in mammary glands of control littermates and RANK^Δmam females 1 day after i.p. injection of PBS or RANKL (1 μg). Proliferation was determined in situ Ki67 immunostaining. Magnifications ×40. e, Quantification of epithelial proliferation 1 day after i.p. injection of PBS or RANKL (1 μg). Mean percentages of Ki67 positive cells+/−sem are shown. *P<0.03; n=5 (Student's t-test).\nFor histological analysis, 5 μm sections were cut and stained with hematoxylin and eosin (H&E). Whole-mount staining of mammary glands was performed as described. For immunoperoxidase staining paraffin-embedded sections were […] and antigenic epitopes exposed using a 10 mM citrate buffer or microwaving. Sections were incubated with antibodies to cytokeratine 5, cytokeratine 14, E-cadherin, anti-Ki67 (Novocastra) and anti-active Caspase 3 (Cell Signaling) and visualized using peroxidase-conjugated secondary antibodies. Histomorphometric indices (proliferation and apoptosis) were calculated as the number of positive epithelial cells divided by the total number of epithelial cells, with no fewer than 1000 nuclei for Ki67 stainings and no fewer than 5000 cells for active Caspase 3 staining counted per section.\nRecently it has been reported that endogenous progesterone affects the numbers of Lin-CD24+CD49f^hi stem cells during pregnancy^15 and the estrous cycle^16. In both studies, the RANKL/RANK system was implicated based on in vivo whole body Ab blocking studies and RT-PCR expression, however, it was not known whether this is a direct effect of RANKL-RANK in mammary epithelial cells rather than a secondary effect. Therefore it was assayed whether progestins such as MPA can also expand Lin-CD24+CD49f^hi cells."}, "[1]": {"test_system": "SKBR3 human breast cancer cells", "test": "DNA damage responses (cell cycle arrest, apoptosis) in SKBR3 cells", "type": "cell-based", "details": "RANKL 1 μg/ml", "experimental": "a, Western Blot analysis for γH2AX, phosphorylated (P) Chk1, total Chk1, p53 and β-actin in isolated primary mouse mammary gland epithelial cells in response to γ-irradiation (2 Gray) in the presence (1 μg/ml) or absence of RANKL stimulation. b,c, FACS analysis of propidium iodide (PI) stained b, mammary epithelial cells and c, SKBR3 human breast cancer cells after γ-irradiation (2 Gray) in the absence or presence (1 μg/ml) of RANKL. Data are representative of at least 3 experiments. Apoptotic cells with a DNA content <2n appear in the sub-G1 region. Percent of cells in sub-G1 (M1), G1-phase (M2), S/G2/M-phase (M3) as well as polyploid cells with a DNA content >4n are given for the indicated time points.\na,b, FACS analysis of a, mammary epithelial cells and b, SKBR3 human breast cancer cells incubated with the genotoxic agent doxorubicin (Dox, 1 μM) in the presence (1 μg/ml) or absence of RANKL. Data are representative of at least 3 experiments. Percent of cells in sub-G1 (M1), G1-phase (M2), S/G2/M-phase (M3) as well as polyploid cells with a DNA content >4n are given for 24 and 36 hours after doxorubicin treatment. c, mRNA expression of pro-apoptotic genes Bim, Puma, and Noxa 6 hours after γ-irradiation (2 Gray) in the presence (1 μg/ml) or absence of RANKL stimulation. Data are shown as fold change compared to control (+/−sem). n=3). *P<0.05; **P<0.005 (Student's t-test).\nFor measurement of cell cycle arrest and apoptosis primary mouse mammary epithelial cells and SKBR3 human breast cancer cells were seeded at a cell-density of 100000 cells/well in a 6-well plate and allowed to grow for 24 hours. Cells where then treated with doxorubicin (1 μM) or γ-irradiation (2 Gray) in the absence or presence of recombinant RANKL (1 μg/ml). Cell cycle arrest and numbers of dead cells were determined using propidium iodine staining. To determine in vivo mammary gland epithelial cell death, control and RANK^Δmam littermate females were γ-irradiated with a total dose of 5 Gray (Gy). Six hours later, mammary glands were isolated and immunostained for active Caspase 3 (Cell Signaling) indicative of apoptosis."}}, "data": [{"molecule": "CC(=O)O[C@]1(C(C)=O)CC[C@H]2[C@@H]3C[C@H](C)C4=CC(=O)CC[C@]4(C)[C@H]3CC[C@@]21C", "note": "[MPA, medroxyprogesterone acetate]", "values": [{"measurement": "MPA-induced proliferation of mammary epithelial cells", "setting": "mammary epithelial cells; RANK^Δmam females", "result": "significantly reduced"}, {"measurement": "acini with very low proliferation rates (Ki67)", "setting": "mammary epithelial cells; RANK^Δmam females, day 3 after MPA s.c. implantation", "result": "more than 60%"}, {"measurement": "acini with signs of medium to high proliferation (Ki67)", "setting": "mammary epithelial cells; control females, day 3 after MPA s.c. implantation", "result": "~80", "unit": "%"}, {"measurement": "proliferation of mammary epithelial cells", "setting": "mammary epithelial cells; wild type population, MPA treatment", "result": "triggers massive proliferation of mammary epithelial cells"}]}, {"molecule": "RANKL: Receptor Activator of NF-κB Ligand; recombinant murine RANKL used for stimulation (protein, UniProt O35235 139-316, looked up) Tumor necrosis factor ligand …: FSGAPAMMEGSWLDVAQRGKPEAQPFAHLTINAASIPSGSHKVTLSSWYHDRGWAKISNMTLSNGKLRVNQDGFYYLYANICFRHHETSGSVPTDYLQLMVYVVKTSIKIPSSHNLMKGGSTKNWSGNSEFHFYSINVGGFFKLRAGEEISIQVSNPSLLDPDQDATYFGAFKVQDID", "values": [{"measurement": "proliferation of mammary gland epithelial cells", "setting": "mammary epithelial cells; nulliparous females, 1 day after i.p. injection of RANKL (1 μg)", "result": "triggered proliferation of mammary gland epithelial cells"}, {"measurement": "cell death after DNA damage", "setting": "[1]; doxorubicin (1 μM)", "result": "marked protection from cell death"}, {"measurement": "early cell cycle arrest after DNA damage", "setting": "[1]; doxorubicin (1 μM)", "result": "did not alter"}, {"measurement": "cell death after DNA damage", "setting": "[1]; γ-irradiation (2 Gray)", "result": "marked protection from cell death"}, {"measurement": "early cell cycle arrest after DNA damage", "setting": "[1]; γ-irradiation (2 Gray)", "result": "did not alter"}]}]}
